Laboratory results published in article PMC4278837, “A Cyclic Peptidic Serine Protease Inhibitor: Increasing Affinity by Increasing Peptide Flexibility” (PLoS ONE, 2014).
Blank lines part the entries; values can stand above or below the substance they belong to.

How the values were obtained:
[1] = target: recombinant catalytic domain of huPA-H99Y (residues 159-411) (human) (UniProt P00749); test: ITC; MicroCal ITC200; peptide injected into 5-50 µM huPA-H99Y catalytic domain; 20 mM sodium phosphate pH 7.4, 140 mM NaCl, 25°C; one-binding-site model
[2] = target: huPA-H99Y (full length human urokinase-type plasminogen activator with H99Y) (human); test: SPR; Biacore T200; uPA variant amine-coupled to a CM5 chip (about 500 RU); peptides injected in HBS with 0.1% BSA, 30 µL/min, 25°C, pH 7.4; 1:1 kinetic fit; KD = koff/kon
huPA-H99Y-Q192A (human) = test: enzyme inhibition (steady state, chromogenic substrate S-2444); about 2 nM enzyme (purified or conditioned medium of transfected cells) pre-incubated 15 min with varied peptide in HBS (10 mM HEPES pH 7.4, 140 mM NaCl) with 0.1% BSA at 37°C; substrate about KM; fit for competitive inhibition; highest peptide concentration 400 µM
huPA-H99Y-R35A (human) = test: as above
huPA-H99Y-K143A (human) = test: as above
huPA-H99Y-V41A (human) = test: as above
[3] = target: huPA-H99Y (full length human urokinase-type plasminogen activator with H99Y) (human); test: as above

- Kd [1]: 5.04 µM
- dH [1]: -8.72 kcal/mol
- stoichiometry N [1]: 1.09
- Kd [2]: 14.1 µM
- koff [2]: 0.802 s⁻¹
- kon [2]: 56900 M⁻¹ s⁻¹
- Ki (huPA-H99Y-Q192A (human)): 33.2 µM
- Ki (huPA-H99Y-R35A (human)): 39.5 µM
- Ki (huPA-H99Y-K143A (human)): 56.6 µM
- Ki (huPA-H99Y-V41A (human)): 32.4 µM
Substance: mupain-1 (peptide)

- Ki [3]: > 1000 µM
Substance: Mupain-1 S5A (peptide)

- Ki [3]: > 1000 µM
Substance: Mupain-1 R6A (peptide)

- Ki [3]: > 1000 µM
Substance: Mupain-1 Y4A (peptide)

- Ki [3]: > 1000 µM
Substance: Mupain-1 P2A (peptide)

- Ki [3]: 19.1 µM
Substance: Mupain-1 L8A (peptide)

- Kd [1]: 1.17 µM
- dH [1]: -9.06 kcal/mol
- stoichiometry N [1]: 1.03
- Kd [2]: 1.41 µM
- koff [2]: 0.366 s⁻¹
- kon [2]: 260000 M⁻¹ s⁻¹
- Ki (huPA-H99Y-Q192A (human)): 4.85 µM
- Ki (huPA-H99Y-R35A (human)): 2.68 µM
- Ki [3]: 5.99 µM
- Ki (huPA-H99Y-K143A (human)): 8.74 µM
- Ki (huPA-H99Y-V41A (human)): 7.2 µM
Substance: Mupain-1 D9A (peptide)

- Ki [3]: 44 µM
Substance: Mupain-1 Y7A (peptide)
